Laboratory results reported in patent US9618524B2, “Method, composition, isolation and identification of a plaque particle and related biomarker” (Plaxgen Inc., priority 2012, dated 2017).

B1: Zinc-alpha-2-glycoprotein (protein)
chain: QENQDGRYSLTYIYTGLSKHVEDVPAFQALGSLNDLQFFRYNSKDRKSQPMGLWRQVEGMEDWKQDSQLQKAREDIFMETLKDIVEYYNDSNGSHVLQGRFGCEIENNRSSGAFWKYYYDGKDYIEFNKEIPAWVPFDPAAQITKQKWEAEPVYVQRAKAYLEEECPATLRKYLKYSKNILDRQDPPSVVVTSHQAPGEKKKLKCLAYDFYPGKIDVHWTRAGEVQEPELRGDVLHNGNGTYQSWVVVAVPPQDTAPYSCHVQHSSLAQPLVVPWEAS
B2: Alpha-1-acid glycoprotein 2 (protein)
chain: QIPLCANLVPVPITNATLDRITGKWFYIASAFRNEEYNKSVQEIQATFFYFTPNKTEDTIFLREYQTRQNQCFYNSSYLNVQRENGTVSRYEGGREHVAHLLFLRDTKTLMFGSYLDDEKNWGLSFYADKPETTKEQLGEFYEALDCLCIPRSDVMYTDWKKDKCEPLEKQHEKERKQEEGES
B3: Protein AMBP (protein)
chain: GPVPTPPDNIQVQENFNISRIYGKWYNLAIGSTCPWLKKIMDRMTVSTLVLGEGATEAEISMTSTRWRKGVCEETSGAYEKTDTDGKFLYHKSKWNITMESYVVHTNYDEYAIFLTKKFSRHHGPTITAKLYGRAPQLRETLLQDFRVVAQGVGIPEDSIFTMADRGECVPGEQEPEPILIPRVRRAVLPQEEEGSGGGQLVTEVTKKEDSCQLGYSAGPCMGMTSRYFYNGTSMACETFQYGGCMGNGNNFVTEKECLQTCRTVAACNLPIVRGPCRAFIQLWAFDAVKGKCVLFPYGGCQGNGNKFYSEKECREYCGVPGDGDEELLRFSN
B4: Alpha-2-antiplasmin (protein)
chain: NQEQVSPLTLLKLGNQEPGGQTALKSPPGVCSRDPTPEQTHRLARAMMAFTADLFSLVAQTSTCPNLILSPLSVALALSHLALGAQNHTLQRLQQVLHAGSGPCLPHLLSRLCQDLGPGAFRLAARMYLQKGFPIKEDFLEQSEQLFGAKPVSLTGKQEDDLANINQWVKEATEGKIQEFLSGLPEDTVLLLLNAIHFQGFWRNKFDPSLTQRDSFHLDEQFTVPVEMMQARTYPLRWFLLEQPEIQVAHFPFKNNMSFVVLVPTHFEWNVSQVLANLSWDTLHPPLVWERPTKVRLPKLYLKHQMDLVATLSQLGLQELFQAPDLRGISEQSLVVSGVQHQSTLELSEVGVEAAAATSIAMSRMSLSSFSVNRPFLFFIFEDTTGLPLFVGSVRNPNPSAPRELKEQQDSPGNKDFLQSLKGFPRGDKLFGPDLKLVPPMEEDYPQFGSPK

The molecules below were run against T1, Abeta-42 plaque particles (Homo sapiens, UniProt P05067) (assay: Mass spectroscopy proteomics, semi-quantitative binding affinity of serum proteins (plaqueproteome, Table 2)). Conditions: higher number = stronger affinity.
T1 construct: Abeta 1-42
Description: Next to isolate serum derived Abeta-42 plaque particles, the plasma or serum samples obtained from AD subjects were first centrifuged at 5,000 rpm for 5 min and the supernatants were transferred to new centrifuge tubes. Next, the supernatants were diluted in PBS to make 50% of the serum and plasma samples and used for incubation with Abeta-42 plaque oligomers/aggregates. Each assay was performed in 1 mL reaction (800 μL of 50% plasma or serum) and 200 μL (30 μg) of the Abeta-42 aggregates and the mixtures were incubated at 37° C. for 1 hr. To the mixture Thioflavin S dye (120 μg) was added and the sample was incubated for additional 30 min at 37° C. After the incubation, the mixture was directly used for sample acquisition using flow cytometer (FACS ARIA II, BD Biosciences, San Jose, Calif.). After initial detection of Abeta-42 plaque particles in the acquisition blot, gates were drawn in fluorescent dot blot to separately sort and isolate fluorescently labeled Abeta-42 particles.
(§1) For preparing trypsin digested peptide sequences, the isolated plaque particles were centrifuged at 10000 rpm for 5 min and the pellet containing plaque particles was resuspended in 100 μl PBS buffer. Stock solutions of digestion buffer (Ammonium Biocarbonate 50 mM), reducing buffer (DDT 100 mM) and alkylation buffer (lodoaceamide 100 mM) were prepared and stored at −20° C. for up to two months. For trypsin digestion, 100 μl of each plaque particles (2000 of Abeta-42, cholesterol, Tau and alpha-synuclein) were precipitated using cold acetone −80° C. by adding 4X's the volume. The samples were placed on dry ice for 10 min with intermittent vortex. Next, the samples were centrifuged at 4° C. at 10000 G for 10 min. Top layer of acetone was carefully removed from the tube with care not to disturb the plaque particles pellet. The samples were speed-vac for 10 min to ensure all acetone has been boiled away. The plaque particles pellet were reconstituted with 15 μl 8M Urea 100 mM Ammonium bicarbonate stock and 20 μl protease max solution. The protease max solution (Promega, Madison, Wis.) was prepared from stock by adding 60 μl 50 mM Ammonium bicarbonate and used for 3 solution digests (20 μl each). […] The tubes were incubated at 55° C. for 30 minutes. The tubes were then removed and brought to the room temperature followed by addition of 3.2 μl of 1M acrylamide and incubated at room temperature for 30 minutes. To the sample, 63 μL of 50 mM Ammonium bicarbonate was added for a final volume of 98 μl and 2 μl of trypsin (10 μg, Trypsin/Lys C Mix). After mixing the solution with pipet the samples were incubated at 37° C. overnight. After the overnight digest, the tryptic digest were quenched and acidified by adding 10 μl of 50% formic acid/water stock dilution. The samples were centrifuged at 10000 G for 2 minutes and purified using stage tip and used for MS/Mass analysis.
(§2) All MS/MS samples were analyzed using Sequest (Thermo Fisher Scientific, San Jose, Calif., USA; version 1.0). Sequest was set up to search the SUMS_uniprot_Human database (35847 entries) assuming the digestion enzyme strict trypsin. Sequest was searched with a fragment ion mass tolerance of 1.00 Da and a parent ion tolerance of 20 PPM. Propionamide of cysteine was specified in Sequest as a fixed modification. Oxidation of methionine and phospho of serine, threonine and tyrosine were specified in Sequest as variable modifications.
Scaffold (version Scaffold_4.2.1, Proteome Software Inc., Portland, Oreg.) was used to validate MS/MS based peptide and protein identifications. […] Protein probabilities were assigned by the Protein Prophet algorithm (Nesvizhskii, Al et al 2003). […] Proteins sharing significant peptide evidence were grouped into clusters. Proteins were annotated with GO terms from NCBI (downloaded Jan. 17, 2014).
In the case of B1, the “Semi-quantitative analysis of proteins binding to different plaque particles: Abeta-42” value is reported as 5. B2 was tested, and the “Semi-quantitative analysis of proteins binding to different plaque particles: Abeta-42” value was 9. B3 was tested, and the “Semi-quantitative analysis of proteins binding to different plaque particles: Abeta-42” value was 5. B4 was tested, and the “Semi-quantitative analysis of proteins binding to different plaque particles: Abeta-42” value was 0.

Each molecule was assayed against T2, alpha-synuclein plaque particles (Homo sapiens, UniProt P37840) in the same assay as above. Conditions: higher number = stronger affinity.
T2 construct: 140 amino acids polypeptide
Description: To prepare oligomers/aggregates of human alpha-synuclein (140 amino acids polypeptide), 1 mg of the recombinant alpha-synuclein protein was suspended in 1 mL of PBS and the sample was incubated at 37° C. for 2 hrs. After incubation, all the samples were centrifuged for 5 min. at 5000 rpm to remove precipitate, if any, and the supernatant containing oligomers/aggregates were used in vitro plaque particles formation assay. For detecting alpha-synuclein plaque particles Thioflavin S (Ex/Em=430 nm/550 nm) amyloid binding fluorescent dye (10 μg) was used.
Similarly, to isolate alpha-synuclein plaque particles, diluted plasma or serum samples obtained from AD subjects were used for incubation with alpha-synuclein plaque oligomers/aggregates. Each assay was performed in 1 mL reaction (800 μL of 50% plasma or serum) and 200 μL (30 μg) of the alpha-synuclein aggregates and the mixtures were incubated at 37° C. for 1 hr. To the mixture Thioflavin S dye (120 μg) was added and the sample was incubated for additional 30 min at 37° C. After the incubation, the mixture was directly used for sample acquisition using flow cytometer (FACS ARIA II, BD Biosciences, San Jose, Calif.). After initial detection of alpha-synuclein plaque particles, gates were drawn in the acquisition blot to separately sort and isolate fluorescently labeled alpha-synuclein particles.
as §1, §2
Scaffold (version Scaffold_4.2.1, Proteome Software Inc., Portland, Oreg.) was used to validate MS/MS based peptide and protein identifications.
With B1 the “Semi-quantitative analysis of proteins binding to different plaque particles: Synuclein” value was 7. In the case of B2, the “Semi-quantitative analysis of proteins binding to different plaque particles: Synuclein” value is reported as 10. In the case of B3, the “Semi-quantitative analysis of proteins binding to different plaque particles: Synuclein” value is reported as 5. With B4 the “Semi-quantitative analysis of proteins binding to different plaque particles: Synuclein” value was 5.

Each molecule was assayed on Tau plaque particles in the same assay as above. Conditions: higher number = stronger affinity.
Design: species or system human
Description: For Tau-74 (74-102) (Exon 3/Insert 2 domain) preparation, 1 mg of Tau-74 was suspended in 1 mL of PBS and the sample was incubated at 37° C. for 2 hrs. Similarly for preparing Tau-275 (275-305) (Repeat 2 domain) 1 mg of the peptide was suspended in 1 mL of PBS and the sample was incubated at 37° C. for 2 hrs. After incubation, all the samples were centrifuged for 5 min. at 5000 rpm to remove precipitate, if any, and the supernatant containing oligomers/aggregates were used for in vitro amyloid plaque particles formation assay. For detecting Tau plaque particles, Thioflavin S (Ex/Em=430 nm/550 nm) amyloid binding fluorescent dye (10 μg) was used in the assay.
Next, to isolate Tau plaque particles, as performed for Abeta-42 and Abeta-28 plaque particles isolation, diluted serum samples were used for incubation separately with Tau-45, Tau-74 and Tau-275 oligomers/aggregates. Each assay was performed in 1 mL reaction (800 μL of 50% plasma or serum) and 200 μL (30 μg) of each Tau aggregates and the mixtures were incubated at 37° C. for 1 hr. To the each mixture Thioflavin S dye (120 μg) was added and the sample was incubated for additional 30 min at 37° C. After the incubation, each sample was directly used for sample acquisition using flow cytometer (FACS ARIA II, BD Biosciences, San Jose, Calif.). After initial detection of Tau plaque particles, gates were drawn in the acquisition blot to separately sort and isolate fluorescently labeled Tau plaque particles.
as §1, §2
With B1 the “Semi-quantitative analysis of proteins binding to different plaque particles: Tau” value was 4. For B2, the “Semi-quantitative analysis of proteins binding to different plaque particles: Tau” value was 9. For B3, the “Semi-quantitative analysis of proteins binding to different plaque particles: Tau” value was 10. For B4, the “Semi-quantitative analysis of proteins binding to different plaque particles: Tau” value was 5.

Each molecule was assayed on Low density cholesterol (Chl small) plaque particles in the same assay as above. Conditions: higher number = stronger affinity.
Design: species or system human
Description: (§3) The goal was to isolate plaque particles synthesized in the bio-fluids in a relatively pure form to enable their subsequent use for identification of components that contribute to the plaque formation. In order to isolate cholesterol plaque particles, the plasma or serum samples obtained from atherosclerotic subjects were first centrifuged at 5,000 rpm for 5 min and the supernatants were transferred to new centrifuge tubes. Next, the supernatants were diluted in PBS to make 50% of the serum and used for incubation with cholesterol oligomers/aggregates. Each assay was performed in 1 mL reaction (800 μL of 50% plasma or serum) and 200 μL (30 μg) of the Cholesterol aggregates and the mixtures were incubated at 37° C. for 1 hr After the incubation, the mixture was directly used for sample acquisition using flow cytometer (FACS ARIA II, BD Biosciences, San Jose, Calif.). […] In order to isolate these fractions, three sets of gates were drawn in the acquisition blot to separately sort and isolate High density or high complex cholesterol particles, Low density or low complex cholesterol particles and both High and low density cholesterol particles together.
as §1, §2
(§4) Scaffold (version Scaffold_4.2.1, Proteome Software Inc., Portland, Oreg.) was used to validate MS/MS based peptide and protein identifications. […] Protein probabilities were assigned by the Protein Prophet algorithm (Nesvizhskii, Al et al 2003).
For B1, the “Semi-quantitative analysis of proteins binding to different plaque particles: Chl small” value was 5. B2 was tested, and the “Semi-quantitative analysis of proteins binding to different plaque particles: Chl small” value was 7. For B3, the “Semi-quantitative analysis of proteins binding to different plaque particles: Chl small” value was 5. For B4, the “Semi-quantitative analysis of proteins binding to different plaque particles: Chl small” value was 3.

Each molecule was assayed on High Density cholesterol (Chl Large) plaque particles in the same assay as above. Conditions: higher number = stronger affinity.
Design: species or system human
Description: as §3, §1, §2, §4
For B1, the “Semi-quantitative analysis of proteins binding to different plaque particles: Chl Large” value was 4. B2 was tested, and the “Semi-quantitative analysis of proteins binding to different plaque particles: Chl Large” value was 5. B3 was tested, and the “Semi-quantitative analysis of proteins binding to different plaque particles: Chl Large” value was 5. In the case of B4, the “Semi-quantitative analysis of proteins binding to different plaque particles: Chl Large” value is reported as 6.
